Source: patent US20100272709A1 (GENERAL HOSPITAL, published 2010)
One block for each molecule: values may come before it.

What was measured:
[1] = target: wild type dynamin (dynWT; recombinant dynamin 1) (UniProt Q05193); experiment: FLIM/FRET in fixed podocytes treated with LPS + E64; donor GTPase-Alexa488, acceptor Hudy1-Alexa568; self-assembly
[2] = target: wild type dynamin (dynWT; recombinant dynamin 1) (UniProt Q05193); experiment: FLIM/FRET in fixed podocytes treated with LPS; donor GTPase-Alexa488, acceptor Hudy1-Alexa568; self-assembly
[3] = target: wild type dynamin (dynWT; recombinant dynamin 1) (UniProt Q05193); experiment: FLIM/FRET in fixed podocytes; donor GTPase-a488, acceptor Hudy1-a568; self-assembly
[4] = target: wild type dynamin (dynWT; recombinant dynamin 1) (UniProt Q05193); experiment: FLIM/FRET in fixed podocytes expressing the variant; donor GTPase-Alexa488, acceptor Hudy1-Alexa568; shorter lifetime = dynamin higher order self-assembly
[5] = target: wild type dynamin (dynWT; recombinant dynamin 1) (UniProt Q05193); experiment: FLIM/FRET in fixed podocytes treated with jasplakinolide; donor GTPase-a488, acceptor Hudy1-a568; variant not given, taken as WT
[6] = target: wild type dynamin (dynWT; recombinant dynamin 1) (UniProt Q05193); experiment: FLIM/FRET in fixed podocytes treated with cytochalasin D; donor GTPase-a488, acceptor Hudy1-a568; self-assembly
[7] = target: wild type dynamin (dynWT; recombinant dynamin 1) (UniProt Q05193); experiment: FLIM/FRET in fixed podocytes treated with colchicine; donor GTPase-a488, acceptor Hudy1-a568; variant not given, taken as WT
[8] = target: wild type dynamin (dynWT; recombinant dynamin 1) (UniProt Q05193); experiment: FLIM/FRET in fixed podocytes; donor GTPase-a488, acceptor GTPase-a568 (same antibody on both); the text says no FRET signal was detected with this antibody pair
[9] = target: wild type dynamin (dynWT; recombinant dynamin 1) (UniProt Q05193); experiment: FLIM/FRET in fixed podocytes; donor GTPase-alexa488, acceptor hudy1-alexa568; the value differs from the WT row of Table 1
EYFP-dynI690K fusion = target: T1, EYFP-dynI690K fusion (UniProt Q05193 1-864); experiment: FLIM/FRET in live COS cells; lifetime of the ECFP donor; self-assembly
T1 construct: it is read as I690K; also called YFP-1690K; not shown: EYFP tag
T1 sequence (looked up): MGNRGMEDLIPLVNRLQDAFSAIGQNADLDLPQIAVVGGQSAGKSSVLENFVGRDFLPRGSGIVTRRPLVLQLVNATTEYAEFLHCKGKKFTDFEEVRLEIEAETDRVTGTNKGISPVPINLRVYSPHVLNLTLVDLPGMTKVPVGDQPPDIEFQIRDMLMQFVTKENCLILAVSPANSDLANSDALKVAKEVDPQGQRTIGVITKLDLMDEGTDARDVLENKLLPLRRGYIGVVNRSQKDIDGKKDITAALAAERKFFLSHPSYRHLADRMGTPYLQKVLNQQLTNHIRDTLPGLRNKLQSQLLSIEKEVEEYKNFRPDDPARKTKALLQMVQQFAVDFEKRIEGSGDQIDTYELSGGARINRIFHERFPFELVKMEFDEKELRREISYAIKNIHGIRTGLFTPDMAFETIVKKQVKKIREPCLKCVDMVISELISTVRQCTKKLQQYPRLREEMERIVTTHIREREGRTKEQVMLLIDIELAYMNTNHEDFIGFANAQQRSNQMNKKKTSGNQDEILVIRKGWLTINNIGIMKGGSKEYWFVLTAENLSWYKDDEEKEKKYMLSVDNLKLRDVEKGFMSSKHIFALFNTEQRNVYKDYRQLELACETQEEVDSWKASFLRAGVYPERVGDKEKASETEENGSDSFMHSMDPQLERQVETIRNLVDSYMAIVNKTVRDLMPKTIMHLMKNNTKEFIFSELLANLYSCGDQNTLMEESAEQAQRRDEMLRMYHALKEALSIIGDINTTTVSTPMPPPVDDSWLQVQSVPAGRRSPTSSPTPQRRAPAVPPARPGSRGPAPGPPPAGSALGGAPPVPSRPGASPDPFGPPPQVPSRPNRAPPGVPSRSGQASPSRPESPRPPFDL

[10] = target: T2, EYFP-dynamin wild type fusion (UniProt Q05193 1-864); experiment: as above
T2 construct: also called YFP-WT; EYFP-dynWT; not shown: EYFP tag
T2 sequence (looked up): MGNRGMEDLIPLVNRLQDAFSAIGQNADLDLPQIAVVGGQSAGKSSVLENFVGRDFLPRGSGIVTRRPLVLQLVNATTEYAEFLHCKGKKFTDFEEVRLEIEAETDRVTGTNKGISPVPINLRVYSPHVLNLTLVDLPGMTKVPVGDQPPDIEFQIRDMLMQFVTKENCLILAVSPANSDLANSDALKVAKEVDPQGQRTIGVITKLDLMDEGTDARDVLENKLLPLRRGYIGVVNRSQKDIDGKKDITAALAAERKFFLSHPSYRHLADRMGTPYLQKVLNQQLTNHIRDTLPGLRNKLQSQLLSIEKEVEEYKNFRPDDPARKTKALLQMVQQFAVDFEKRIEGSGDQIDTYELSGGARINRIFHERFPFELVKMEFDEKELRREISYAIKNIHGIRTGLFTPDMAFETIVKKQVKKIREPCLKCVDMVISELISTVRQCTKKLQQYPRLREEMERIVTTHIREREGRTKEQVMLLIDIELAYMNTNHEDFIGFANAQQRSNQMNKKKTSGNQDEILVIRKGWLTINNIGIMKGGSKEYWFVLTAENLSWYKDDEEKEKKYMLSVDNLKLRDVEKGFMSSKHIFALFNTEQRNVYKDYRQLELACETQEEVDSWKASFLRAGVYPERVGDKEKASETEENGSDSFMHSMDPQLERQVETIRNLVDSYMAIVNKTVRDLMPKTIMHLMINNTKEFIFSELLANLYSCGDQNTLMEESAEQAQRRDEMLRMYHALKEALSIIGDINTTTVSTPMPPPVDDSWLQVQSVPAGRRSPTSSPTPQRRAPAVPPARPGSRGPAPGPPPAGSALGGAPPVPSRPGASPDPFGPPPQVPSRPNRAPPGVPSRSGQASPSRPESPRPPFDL

EYFP-dynK694A fusion = target: T3, EYFP-dynK694A fusion (UniProt Q05193 1-864); experiment: as above
T3 construct: also called YFP-K694A; not shown: EYFP tag
T3 sequence (looked up): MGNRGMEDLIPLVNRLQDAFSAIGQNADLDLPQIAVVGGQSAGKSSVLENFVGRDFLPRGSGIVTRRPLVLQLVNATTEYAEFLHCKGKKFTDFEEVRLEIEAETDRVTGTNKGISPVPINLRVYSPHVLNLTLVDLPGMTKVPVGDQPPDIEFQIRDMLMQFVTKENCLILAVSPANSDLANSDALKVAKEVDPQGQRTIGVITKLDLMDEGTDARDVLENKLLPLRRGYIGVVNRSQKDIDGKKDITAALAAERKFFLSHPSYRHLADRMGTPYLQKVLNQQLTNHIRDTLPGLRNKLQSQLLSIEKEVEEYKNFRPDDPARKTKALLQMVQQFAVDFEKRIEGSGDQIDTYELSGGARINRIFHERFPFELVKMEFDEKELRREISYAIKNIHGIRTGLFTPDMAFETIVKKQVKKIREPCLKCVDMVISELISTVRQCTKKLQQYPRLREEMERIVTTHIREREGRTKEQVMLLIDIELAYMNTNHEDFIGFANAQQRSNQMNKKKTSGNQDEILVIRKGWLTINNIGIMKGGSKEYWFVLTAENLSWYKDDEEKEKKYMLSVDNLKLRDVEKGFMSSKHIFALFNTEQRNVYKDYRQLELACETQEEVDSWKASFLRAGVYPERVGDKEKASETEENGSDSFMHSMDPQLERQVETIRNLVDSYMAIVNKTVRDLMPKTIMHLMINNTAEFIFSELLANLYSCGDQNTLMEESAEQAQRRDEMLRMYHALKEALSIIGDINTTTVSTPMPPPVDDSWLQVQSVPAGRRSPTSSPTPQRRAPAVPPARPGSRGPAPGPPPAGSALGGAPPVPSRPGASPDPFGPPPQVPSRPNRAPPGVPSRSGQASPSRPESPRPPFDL

Mean Lifetime (γ1) [1]: 2280 ps
Mean Lifetime (γ1) [2]: 2560 ps
Mean Lifetime (γ1) [3]: 2250 ps
Mean Lifetime (γ1) [4]: 2210 ps
Mean Lifetime (γ1) [5]: 2250 ps
Mean Lifetime (γ1) [6]: 2030 ps
Mean Lifetime (γ1) [7]: 2300 ps
Mean Lifetime (γ1) [8]: 2420 ps
lifetime t1 [9]: 2270 ps
Molecule: wild type dynamin (dynWT; recombinant dynamin 1) (from UniProt Q05193 1-864) (enzyme)

Mean Lifetime (γ1) ps (EYFP-dynI690K fusion): 2070 ps
Mean Lifetime (γ1) ps [10]: 1110 ps
B1: ECFP-dynI690K fusion (other, UniProt Q05193 1-864, looked up)
chain: MGNRGMEDLIPLVNRLQDAFSAIGQNADLDLPQIAVVGGQSAGKSSVLENFVGRDFLPRGSGIVTRRPLVLQLVNATTEYAEFLHCKGKKFTDFEEVRLEIEAETDRVTGTNKGISPVPINLRVYSPHVLNLTLVDLPGMTKVPVGDQPPDIEFQIRDMLMQFVTKENCLILAVSPANSDLANSDALKVAKEVDPQGQRTIGVITKLDLMDEGTDARDVLENKLLPLRRGYIGVVNRSQKDIDGKKDITAALAAERKFFLSHPSYRHLADRMGTPYLQKVLNQQLTNHIRDTLPGLRNKLQSQLLSIEKEVEEYKNFRPDDPARKTKALLQMVQQFAVDFEKRIEGSGDQIDTYELSGGARINRIFHERFPFELVKMEFDEKELRREISYAIKNIHGIRTGLFTPDMAFETIVKKQVKKIREPCLKCVDMVISELISTVRQCTKKLQQYPRLREEMERIVTTHIREREGRTKEQVMLLIDIELAYMNTNHEDFIGFANAQQRSNQMNKKKTSGNQDEILVIRKGWLTINNIGIMKGGSKEYWFVLTAENLSWYKDDEEKEKKYMLSVDNLKLRDVEKGFMSSKHIFALFNTEQRNVYKDYRQLELACETQEEVDSWKASFLRAGVYPERVGDKEKASETEENGSDSFMHSMDPQLERQVETIRNLVDSYMAIVNKTVRDLMPKTIMHLMKNNTKEFIFSELLANLYSCGDQNTLMEESAEQAQRRDEMLRMYHALKEALSIIGDINTTTVSTPMPPPVDDSWLQVQSVPAGRRSPTSSPTPQRRAPAVPPARPGSRGPAPGPPPAGSALGGAPPVPSRPGASPDPFGPPPQVPSRPNRAPPGVPSRSGQASPSRPESPRPPFDL
notes: it is read as I690K; also called CFP-1690K; not shown: ECFP tag

Mean Lifetime (γ1) ps (EYFP-dynK694A fusion): 1300 ps
B2: ECFP-dynK694A fusion (other, UniProt Q05193 1-864, looked up)
chain: MGNRGMEDLIPLVNRLQDAFSAIGQNADLDLPQIAVVGGQSAGKSSVLENFVGRDFLPRGSGIVTRRPLVLQLVNATTEYAEFLHCKGKKFTDFEEVRLEIEAETDRVTGTNKGISPVPINLRVYSPHVLNLTLVDLPGMTKVPVGDQPPDIEFQIRDMLMQFVTKENCLILAVSPANSDLANSDALKVAKEVDPQGQRTIGVITKLDLMDEGTDARDVLENKLLPLRRGYIGVVNRSQKDIDGKKDITAALAAERKFFLSHPSYRHLADRMGTPYLQKVLNQQLTNHIRDTLPGLRNKLQSQLLSIEKEVEEYKNFRPDDPARKTKALLQMVQQFAVDFEKRIEGSGDQIDTYELSGGARINRIFHERFPFELVKMEFDEKELRREISYAIKNIHGIRTGLFTPDMAFETIVKKQVKKIREPCLKCVDMVISELISTVRQCTKKLQQYPRLREEMERIVTTHIREREGRTKEQVMLLIDIELAYMNTNHEDFIGFANAQQRSNQMNKKKTSGNQDEILVIRKGWLTINNIGIMKGGSKEYWFVLTAENLSWYKDDEEKEKKYMLSVDNLKLRDVEKGFMSSKHIFALFNTEQRNVYKDYRQLELACETQEEVDSWKASFLRAGVYPERVGDKEKASETEENGSDSFMHSMDPQLERQVETIRNLVDSYMAIVNKTVRDLMPKTIMHLMINNTAEFIFSELLANLYSCGDQNTLMEESAEQAQRRDEMLRMYHALKEALSIIGDINTTTVSTPMPPPVDDSWLQVQSVPAGRRSPTSSPTPQRRAPAVPPARPGSRGPAPGPPPAGSALGGAPPVPSRPGASPDPFGPPPQVPSRPNRAPPGVPSRSGQASPSRPESPRPPFDL
notes: also called CFP-K694A; not shown: ECFP tag
